The values that follow are results of earlier work, collected in patent publication US11407822B2, “Treatment of fibrodysplasia ossificans progressiva” (REGENERON PHARMACEUTICALS, INC., priority 2014, dated 2022).

Data set [1] concerns the target T1, Activin A binding to ACVR2A or ACVR2B (Homo sapiens, UniProt P08476).
T1 sequence (P08476 311-426): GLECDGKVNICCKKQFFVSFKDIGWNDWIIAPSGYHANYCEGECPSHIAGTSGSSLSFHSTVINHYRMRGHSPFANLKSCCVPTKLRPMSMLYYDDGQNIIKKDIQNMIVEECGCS
Particulars: as described for the antibody in US2015/0037339 or U.S. Pat. No. 8,309,082.

Data set [2] relates to Activin A mediated signaling through ACVR2A and/or ACVR2B. Particulars: as described for the antibody in US2015/0037339 or U.S. Pat. No. 8,309,082.

B1: H4H10430P: Antibody against Activin A designated H4H10430P in US2015037339; heavy and light chain variable regions present SEQ ID NOs:9 and 13 (antibody, V domains shown)
VH: EVQLVESGGGLVQPGRSLRLSCKASGFAFDDFAMHWVRQAPGKGLEWVSGIVWNSGDIGYADSVKGRFTISRDNAKNSLYLQLNSLRTEDTALYFCVKDMVRGLMGFNYYGMDVWGQGTTVTVSS
VL: EIVLTQSPATLSLSPGERATLSCRASQTISTYLVWYRQRPGQAPSLLIYDASNRATDIPARFSGSGSGTDFTLTISSLEPEDFAVYYCQQRSNWPITFGQGTRLEIK
With B1, in data set [1], the “inhibition of Activin A binding to ACVR2A and/or ACVR2B” value is listed as “inhibits binding of Activin A to ACVRV2A and/or ACVR2B”. For the same molecule, the “inhibition of Activin A signal transduction through ACVR2A and/or ACVR2B” value in data set [2] was “inhibits signal transduction through one or both of these receptors”.
